In one data set the target is T1, H460 lysate (Homo sapiens, UniProt Q12797).
T1 construct: A 96-well plate was coated with H460 lysate and dried at room temperature overnight; endogenous in cells; host or cells: H460 lysate (sonicated, supernatant)
T1 sequence (Q12797 1-758): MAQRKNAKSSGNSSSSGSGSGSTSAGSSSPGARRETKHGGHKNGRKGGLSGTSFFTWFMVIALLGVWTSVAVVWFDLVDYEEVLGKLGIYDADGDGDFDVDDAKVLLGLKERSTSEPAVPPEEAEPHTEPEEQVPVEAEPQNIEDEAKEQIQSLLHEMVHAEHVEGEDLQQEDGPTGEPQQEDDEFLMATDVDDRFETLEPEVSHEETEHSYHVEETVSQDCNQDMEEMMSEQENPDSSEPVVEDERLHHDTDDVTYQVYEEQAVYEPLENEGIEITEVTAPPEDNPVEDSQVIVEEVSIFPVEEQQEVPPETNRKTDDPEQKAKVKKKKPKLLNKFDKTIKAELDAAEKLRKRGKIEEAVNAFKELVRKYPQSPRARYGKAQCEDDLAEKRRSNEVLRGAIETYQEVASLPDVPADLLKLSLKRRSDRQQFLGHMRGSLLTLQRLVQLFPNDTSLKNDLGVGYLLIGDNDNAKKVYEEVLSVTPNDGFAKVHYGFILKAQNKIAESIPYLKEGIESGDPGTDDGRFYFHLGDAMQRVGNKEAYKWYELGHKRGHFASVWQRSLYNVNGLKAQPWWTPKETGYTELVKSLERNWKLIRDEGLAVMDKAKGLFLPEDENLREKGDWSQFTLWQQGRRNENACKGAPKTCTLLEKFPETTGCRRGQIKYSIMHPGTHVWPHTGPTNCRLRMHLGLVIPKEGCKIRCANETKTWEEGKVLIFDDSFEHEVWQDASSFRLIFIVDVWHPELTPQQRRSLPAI
Put plainly: Binding of naked antibodies and ADCs to H460 lysate. The procedure:
H460 cells were harvested, the cell density was adjusted to 2×10^6 cells/ml with PBS, and the resuspended cells sonicated on ice twice in 30 second pulses. After centrifugation at 300×g for 5 minutes the supernatant was collected and the protein concentration measured using a NANODROP spectrophotometer (ThermoFisher Scientific). A 96-well plate was coated with H460 lysate and dried at room temperature overnight. Following a 1-hour blockage with 1% non-fat dry milk in phosphate buffered saline (PBS), the plates were incubated for 45 minutes at 37° C. with each either 0.5 μg/ml IgG1λ (non-specific monoclonal antibody), IgG1λ-MC-DM1 (non-specific ADC), or SNS622-MC-DM1, or with 5 μg/ml SNS622. Following five PBS rinses to remove un-bound antibody. 1:100 goat anti-human IgG (8)-HRP was added and the plates incubated for 30 minutes at 37° C. Following five PBS rinses TMB substrate was added and, after incubation of the plates for 15 minutes at room temperature. Stop solution was added to terminate the reactions. The plates were read at 450 nm using a 96-well plate reader (ELx808, BioTek).

For a further data set, the system named is MIA-PaCa-2 ASPH cells. The experiment in a line: MTS cytotoxicity assay, MIA-PaCa-2 ASPH. The format is cell-based, human. To be noted: 10-50 nM, 48 hours. The procedure:
The in vitro specificity of SNS622-MC-DM1 was also examined using the human pancreas cell line MIA-PaCa-2 ASPH. This cell line has a high level expression of ASPH. MIA-PaCa-2 cells were seeded at a density of 2,000 cells/well and cultured in high-glucose (25 mM D-glucose) Dulbecco's Modified Eagle's Medium (DMEM) with 10% FBS at 37° C. in a humidified atmosphere containing 5% CO2. The cells were treated with 10 nM IgG1-MC-DM1, 20 nM IgG1-MC-DM1, 50 nM IgG1-MC-DM1, 10 nM SNS622-MC-DM1, 20 nM SNS622-MC-DM1, or 50 nM SNS622-MC-DM1 for 48 hours. IgG1-MC-DM1 is a control ADC obtained from Goodwin Biotechnology, having catalog No. DAGIC1194, The cytotoxicity of the ADCs was measured using an MTS assay kit (Promega, Catalog No, G3582). After treatment for 1 hour with the MTS solution, absorbance was measured using a microplate reader at a 490 nm wavelength, with a reference at 690 nm.
In general terms: Tetrazolium assays rely on reduction of a dye to a coloured formazan, in cell work by metabolically active cells.

The subject of data set [1] is pancreatic ductular adenocarcinoma (PDAC) xenograft. The experiment in a line: Patient-derived xenograft (PDx) model of PDAC, primary tumor growth. It counts as in vivo, mouse. To be noted: 2.5 mg/kg i.v., by day 35, vs SNS622 or non-treated control. The text has this: Pancreatic ductular adenocarcinoma (PDAC) is a highly lethal malignancy with limited treatment options. HAAH is a cell surface protein that is highly expressed in […] of PDACs. The specificity of SNS622-MC-DM1 was next examined in the patient-derived xenograft (PDx) mouse model PDAC. The patient-derived xenograft (PDx) murine model was established by using surgically resected PDAC (from Rhode Island Hospital, Providence, R.I., U.S.A.). Five to six-week-old female Nod Scid Gamma (NSG) mice were employed. The surgically resected tumor tissue was diced into 5×5×5 mm^3 pieces, and a piece of tumor tissue was subcutaneously transplanted under anesthesia with isoflurane into each mouse via a small incision in the lower back, A buprenorphine analgesic was injected to each mouse for 3 days after surgery. The SNS622 antibody or the SNS622-MC-DM1 ADC was administered at a dose of 2.5 mg/kg by intravenous tail-vein injection every two weeks starting at day 17 post-surgery. Body weight and tumor size were measured twice a week and tumor volume was calculated using the modified ellipsoid formula (0.5×length×width^2). To determine the effect of SNS622-MC-DM1 on lung metastasis, all lung tissues were immersed in Bouin's fixative solution (Sigma-Aldrich, St. Louis, Mo., U.S.A.; catalog No, HT10132) and metastatic nodules on the surface of the lungs were counted. […]
(In xenograft studies the graft and the host belong to different species.)

Data set [2] has as its system normal human lung fibroblasts (NHLF). Put plainly: Cell morphology by phase contrast microscope, NHLF. The format is cell-based. To be noted: 32 nM, 72 hours.
Description: Both cell lines were cultured in HG-DMEM (ThermoFisher Scientific Catalog No. 11965-092) supplemented with 20 mM HEPES (4-(2-hydroxyethyl)-1-piperazineethanesulfonic acid), 4 mM L-glutamine, 1 mM sodium pyruvate, 1× non-essential amino acids, 50 μg/ml gentamicin and 10% fetal bovine serum (FBS). H460 and NHLF cells were seeded into 96-well plates at 5,000 cells per well, following a 2-day FBS deprivation, and released by culture in complete culture medium containing 10% FBS. […] By 72 hours post treatment, cell death was determined by observing cell morphology using a phase contrast microscope at 150×.

“SNS622-MC-DM1: SNS622 anti-HAAH monoclonal antibody conjugated to mertansine (DM1) by the non-cleavable linker maleimidocaproyl (MC)” yielded a Percent binding with H460 lysate (percent of loading amount bound) of 107%. This substance had a Binding amount with H460 lysate (sonicated H460 (2E^6 cells/ml), loading 5.0 or 0.5 μg/ml) of 5.35 µg/mL. For the same substance, the “Reduction of relative absorbance (MTS)” value in the data set on MIA-PaCa-2 ASPH cells is “about 16%”. Besides, in data set [1], the PDAC tumor growth entry is “significantly reduced PDAC tumor growth”. Moreover, the “Cell density (morphology)” value in data set [2] was “no significant reduction of cell density”.

Values taken from patent publication US20200390902A1, “Antibody-Drug Conjugates Targeted at Human Aspartyl-(Asparaginyl)-B-Hydroxylase (HAAH)” (Panacea Pharmaceuticals, Inc., priority 2017, published 2020).
